Positions count from the first letter of the chain named. Names may count otherwise.
What was measured:
[1] = target: T1, human BCMA-Fc protein (human, UniProt Q02223 1-54); experiment: DACE (dual antigen captured ELISA): plate coated with human BCMA-Fc, bispecific antibody titrated, then human 4-1BB-His; Abs at 450 nm
T1 construct: Coated antigen of the DACE
T1 sequence: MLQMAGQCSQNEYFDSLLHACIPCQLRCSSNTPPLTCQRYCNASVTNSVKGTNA

[2] = target: human 4-1BB on GloResponse NFkB-luc2/4-1BB Jurkat cells (human, UniProt Q07011 24-255); experiment: cell-based or functional assay
[3] = target: T2, Recombinant Human BCMA (human, UniProt Q02223 1-54); experiment: SPR, bispecific antibody on Protein A chip, antigen flowed
T2 construct: also called hBCMA; recombinant BCMA
T2 sequence: T1 sequence
Procedure: In the SPR experiment, the anti-BCMA/anti-4-1BB bispecific antibodies obtained in Example 3-5 were individually captured on flow-cells 2, 3 and 4, keeping the flow-cell 1 as reference, on a Protein A Chip on which an anti-BCMA/anti-4-1BB Bispecific antibody (5D5M4(NA)×41B01 M12 or 5A6M6(NA)×41B01 M12) had been immobilized by amine coupling. Recombinant Human BCMA or Human 4-1BB protein was flowed across the chip at concentration range from 100 nM to 6.25 nM for human BCMA or 250 nM to 15.625 nM for human 4-1BB and 0.78 nM at […] for 300 seconds, followed by a dissociation phase of 400 seconds. Regeneration was performed with 10 mM Glycine-HCl (pH 2.0).

[4] = target: T2, Recombinant Human BCMA; experiment: single clone phage ELISA on coated recombinant BCMA
Procedure: Specifically, the phage pool obtained according to Example 1-2 was sequentially diluted, and cultured on a solid medium containing LB-tetracycline/cabenicillin to obtain single colonies. Each colony was cultured on a 96-deep well plate so that OD600 was from 0.5 to 0.7. 20 MOI of helper phage was added to each well, and reacted at 37° C. for 1 hour. Thereafter, kanamycin was added to each well and incubated overnight at 30° C. On the next day, the culture was centrifuged and the supernatant thereof was collected, and then, ELISA was performed to select BCMA-specific phages. Each well of the ELISA plate was coated with 100 ng of recombinant BCMA, and then incubated with PBS-B (3% BSA containing PBS) to prevent nonspecific binding. Thereafter, the plate was washed with PBS. The prepared single clone phage was added to each well and incubated at 37° C. for 1 hour, and the plate was washed three times with PBS-T. For detecting the bounded phages, horseradish peroxidase (HRP) conjugated anti-hemagglutinin (HA) antibody was added to each well. After washing step with PBS-T, tetramethylbenzidine (TMB, Sigma, T0440) was added. Clones, which are with an absorbance that is 0.5 or more at the wavelength of 450 nm and also the absorbance is at least 5 times greater than that of the control with anti-HA HRP alone, were selected. Four antibody clones (B58, 5B5, 5D5, and 5A6), which specifically bind to human BCMA, were selected.

[5] = target: T3, Recombinant Human 4-1BB protein (human, UniProt Q07011 24-186); experiment: BLI, Octet Red 96
T3 construct: also called h4-1BB; 4-1BB antigen
Source text: To explore the binding kinetics of the humanized antibody, this example performed the affinity ranking by using Octet Red 96.

[6] = target: T3, Recombinant Human 4-1BB protein; experiment: phage ELISA on 4-1BB antigen-coated plates

Sequence of human 4-1BB on GloResponse NFkB-luc2/4-1BB Jurkat cells (Q07011 24-255): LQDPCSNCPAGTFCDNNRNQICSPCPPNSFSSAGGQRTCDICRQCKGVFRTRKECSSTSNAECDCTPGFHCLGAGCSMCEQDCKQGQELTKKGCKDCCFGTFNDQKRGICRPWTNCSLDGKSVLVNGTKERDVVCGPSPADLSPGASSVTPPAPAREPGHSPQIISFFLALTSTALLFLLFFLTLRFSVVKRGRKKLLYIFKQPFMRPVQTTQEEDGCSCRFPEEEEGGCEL

B1: 5D5(NA)x41B01 M12 (bispecific antibody, human IgG1, kappa, N297A)
heavy: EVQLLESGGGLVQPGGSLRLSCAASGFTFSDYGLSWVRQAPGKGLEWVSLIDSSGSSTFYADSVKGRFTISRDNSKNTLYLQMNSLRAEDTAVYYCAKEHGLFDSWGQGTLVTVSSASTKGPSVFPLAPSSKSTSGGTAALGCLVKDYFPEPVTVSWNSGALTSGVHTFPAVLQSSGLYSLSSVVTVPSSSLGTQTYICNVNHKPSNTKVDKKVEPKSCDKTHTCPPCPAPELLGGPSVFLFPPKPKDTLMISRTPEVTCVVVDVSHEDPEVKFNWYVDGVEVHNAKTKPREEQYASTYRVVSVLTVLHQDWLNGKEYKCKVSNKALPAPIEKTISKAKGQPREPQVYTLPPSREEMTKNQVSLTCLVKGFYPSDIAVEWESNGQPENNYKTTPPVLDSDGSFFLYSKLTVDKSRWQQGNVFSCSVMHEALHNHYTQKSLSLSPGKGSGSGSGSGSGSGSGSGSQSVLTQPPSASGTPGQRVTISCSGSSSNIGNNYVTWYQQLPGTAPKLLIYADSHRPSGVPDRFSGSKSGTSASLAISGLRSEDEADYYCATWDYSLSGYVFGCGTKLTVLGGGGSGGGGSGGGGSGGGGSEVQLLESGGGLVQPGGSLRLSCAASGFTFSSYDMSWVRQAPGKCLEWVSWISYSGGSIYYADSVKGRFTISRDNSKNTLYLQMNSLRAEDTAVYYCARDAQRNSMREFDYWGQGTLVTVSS
light: EIVLTQSPGTLSLSPGERATLSCKASQDIDDDINWYQQKPGQAPRLLIYDASLRATGIPDRFSGSGSGTDFTLTISRLEPEDFAVYYCQQSLRTPITFGQGTKLEIKRTVAAPSVFIFPPSDEQLKSGTASVVCLLNNFYPREAKVQWKVDNALQSGNSQESVTEQDSKDSTYSLSSTLTLSKADYEKHKVYACEVTHQGLSSPVTKSFNRGEC
notes: also called 5D5(NA)x41B01 M12:WT; 5D5WT(NA)x41B01 M12
**Q.** B1 was tested. Which “EC50 (read off the curve)” value [1] did it give?
**A.** Its value is ~0.5 nM.

**Q.** What about the “In vitro 4-1BB activation (reporter bioassay) with H929 cells, EC50” value [2] of the same binder?
**A.** The value was 0.629 nM.

**Q.** What about the “In vitro 4-1BB activation (reporter bioassay) with MM1S cells, EC50” value [2] of the same binder?
**A.** The value was 2.66 nM.

B2: 5D5M4(NA)x41B01 M12 (bispecific antibody, human IgG1, kappa, N297A)
heavy: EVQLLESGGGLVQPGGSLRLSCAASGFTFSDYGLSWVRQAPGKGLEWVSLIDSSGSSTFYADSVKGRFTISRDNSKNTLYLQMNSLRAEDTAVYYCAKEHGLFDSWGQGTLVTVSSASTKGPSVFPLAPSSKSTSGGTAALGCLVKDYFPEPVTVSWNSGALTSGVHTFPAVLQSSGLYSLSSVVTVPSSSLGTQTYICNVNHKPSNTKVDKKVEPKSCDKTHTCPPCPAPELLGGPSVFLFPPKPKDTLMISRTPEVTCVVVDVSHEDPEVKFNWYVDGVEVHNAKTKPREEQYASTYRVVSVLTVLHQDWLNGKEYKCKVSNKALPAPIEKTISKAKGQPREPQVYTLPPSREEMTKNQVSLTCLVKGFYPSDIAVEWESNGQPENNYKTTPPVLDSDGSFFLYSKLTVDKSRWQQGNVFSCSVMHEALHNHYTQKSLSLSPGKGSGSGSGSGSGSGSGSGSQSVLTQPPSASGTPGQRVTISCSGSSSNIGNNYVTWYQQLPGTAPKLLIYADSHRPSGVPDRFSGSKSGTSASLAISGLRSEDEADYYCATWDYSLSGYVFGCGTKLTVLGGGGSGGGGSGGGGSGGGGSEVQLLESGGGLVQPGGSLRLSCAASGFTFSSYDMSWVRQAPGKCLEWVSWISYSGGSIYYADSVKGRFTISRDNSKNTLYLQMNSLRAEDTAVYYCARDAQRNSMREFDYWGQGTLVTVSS
light: B1 light with D32A
notes: IgG1 N297A-(GS)9-scFv
**Q.** How did the “EC50 (read off the curve)” value [1] turn out when B2 was run?
**A.** Its value is ~0.4 nM.

**Q.** What about the “In vitro 4-1BB activation (reporter bioassay) with H929 cells, EC50” value [2] of the same binder?
**A.** The value was 0.377 nM.

**Q.** And the “In vitro 4-1BB activation (reporter bioassay) with MM1S cells, EC50” value [2]?
**A.** Its value is 2.41 nM.

**Q.** And the Kd [3]?
**A.** The Kd was 16 nM.

**Q.** And the koff [3]?
**A.** Its koff is 0.065 s⁻¹.

**Q.** And the kon [3]?
**A.** The kon was 4.07e+06 M⁻¹ s⁻¹.

B3: 5A6 (phage antibody clone) (scFv, V domains shown)
VH: EVQLLESGGGLVQPGGSLRLSCAASGFTFSNYGVHWVRQAPGKGLEWVSYISYSGGTYYNPSLKSRFTISRDNSKNTLYLQMNSLRAEDTAVYYCARDSDDFGFDYWGQGTLVTVSS
VL: QSVLTQPPSASGTPGQRVTISCQGDSLRSYYVNWYQQLPGTAPKLLIYDHSKRPTGVPDRFSGSKSGTSASLAISGLRSEDEADYYCQSYDSSTVVFGGGTKLTVL
**Q.** Does B3 bind [4]?
**A.** Result: binds

B4: 5B5 (phage antibody clone) (scFv, V domains shown)
VH: EVQLLESGGGLVQPGGSLRLSCAASGFTFSGHYWSWVRQAPGKGLEWVSTVSGSGGDTFYADSVKGRFTISRDNSKNTLYLQMNSLRAEDTAVYYCARGHSVMDVWGQGTLVTVSS
VL: EIVLTQSPGTLSLSPGERATLSCRASQGIDSYVAWYQQKPGQAPRLLIYDASLRATGIPDRFSGSGSGTDFTLTISRLEPEDFAVYYCQQYNSWPITFGQGTKLEIK
**Q.** Does B4 bind [4]?
**A.** Result: binds

B5: 5D5 (phage antibody clone) (scFv, V domains shown)
VH: EVQLLESGGGLVQPGGSLRLSCAASGFTFSDYGLSWVRQAPGKGLEWVSLIDSSGSSTFYADSVKGRFTISRDNSKNTLYLQMNSLRAEDTAVYYCAKEHGLFDSWGQGTLVTVSS
VL: B4 VL with R24K, G28D, S31D, Y32D, V33I, A34N, Y91S, N92L, S93R, W94T
**Q.** Does B5 bind [4]?
**A.** Result: binds

B6: 41B01 (anti-4-1BB monoclonal antibody) (antibody, V domains shown)
VH: EVQLLESGGGLVQPGGSLRLSCAASGFTFSSYDMSWVRQAPGKGLEWVSWISYSGGSIYYADSVKGRFTISRDNSKNTLYLQMNSLRAEDTAVYYCARDGQRNSMREFDYWGQGTLVTVSS
VL: QSVLTQPPSASGTPGRRVTISCSGSSSNIGNNYVTWYQQLPGTAPKLLIYADSHRPSGVPDRFSGSKSGTSASLAISGLRSEDEADYYCATWDYSLSGYVFGGGTKLTVL
notes: Tested as a human IgG type antibody (detected with anti-human IgG); also called 1A10
**Q.** For B6, which Kd [5] is on record?
**A.** Its Kd is 0.18 nM.

**Q.** What about the koff [5] of the same binder?
**A.** The koff was 0.000119 s⁻¹.

**Q.** And the kon [5]?
**A.** The kon was 658000 M⁻¹ s⁻¹.

B7: 41B02 (anti-4-1BB monoclonal antibody) (antibody, V domains shown)
VH: EVQLLESGGGLVQPGGSLRLSCAASGFTFSGYDMSWVRQAPGKGLEWVSVIYPDDGNTYYADSVKGRFTISRDNSKNTLYLQMNSLRAEDAAVYYCAKHGGQKPTTKSSSAYGMDGWGQGTLVTVSS
VL: B6 VL
notes: Tested as a human IgG type antibody; also called 1A12
**Q.** Which results are given for B7?
**A.** Kd [5]: 1.01 nM; koff [5]: 0.000603 s⁻¹; kon [5]: 595000 M⁻¹ s⁻¹

B8: AB41 (phage antibody clone) (other)
VH: QVQLQQSGAEVIKPGASVKLSCKASGYTFSSYWMHWVRQAPGQGLEWIGEINPGNGHTNYNEKFKSRATLTGDTSTSTVYMELSSLRSEDTAVYYCARSFTTARAFAYWGQGTLVTVSS
VL: DIVMTQSPAFLSVTPGEKVTITCRASQTISDYLHWYQQKPDQAPKLLIKYASQSISGIPSRFSGSGSGTDFTFTISSLEAEDAATYYCQDGHSFPPTFGQGTKLEIK
notes: Clone as selected by phage ELISA
**Q.** Does B8 bind [6]?
**A.** Result: binds

B9: 5A6(NA)x41B01 M12 (bispecific antibody, human IgG1, lambda, N297A)
heavy: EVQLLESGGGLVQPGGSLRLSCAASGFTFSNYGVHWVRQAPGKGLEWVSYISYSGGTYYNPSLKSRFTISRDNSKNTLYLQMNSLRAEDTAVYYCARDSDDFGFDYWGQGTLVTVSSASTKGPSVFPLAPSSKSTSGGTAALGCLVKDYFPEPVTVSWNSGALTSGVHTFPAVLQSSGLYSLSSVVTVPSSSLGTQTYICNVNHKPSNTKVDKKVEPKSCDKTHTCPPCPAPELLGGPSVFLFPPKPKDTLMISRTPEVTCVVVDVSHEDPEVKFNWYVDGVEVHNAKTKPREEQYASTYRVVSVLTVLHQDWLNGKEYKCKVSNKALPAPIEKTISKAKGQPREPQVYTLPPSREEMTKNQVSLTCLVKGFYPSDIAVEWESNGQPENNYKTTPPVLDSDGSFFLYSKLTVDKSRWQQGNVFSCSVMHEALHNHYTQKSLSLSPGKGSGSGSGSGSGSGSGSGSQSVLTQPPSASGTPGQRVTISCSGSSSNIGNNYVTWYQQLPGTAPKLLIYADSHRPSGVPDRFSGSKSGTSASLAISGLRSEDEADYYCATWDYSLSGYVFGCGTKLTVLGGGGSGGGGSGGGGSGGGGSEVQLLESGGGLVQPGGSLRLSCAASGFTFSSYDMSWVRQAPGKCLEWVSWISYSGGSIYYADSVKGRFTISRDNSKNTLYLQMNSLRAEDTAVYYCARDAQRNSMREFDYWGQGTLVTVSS
light: QSVLTQPPSASGTPGQRVTISCQGDSLRSYYVNWYQQLPGTAPKLLIYDHSKRPTGVPDRFSGSKSGTSASLAISGLRSEDEADYYCQSYDSSTVVFGGGTKLTVLGQPKAAPSVTLFPPSSEELQANKATLVCLISDFYPGAVTVAWKADSSPVKAGVETTTPSKQSNNKYAASSYLSLTPEQWKSHRSYSCQVTHEGSTVEKTVAPAECS
notes: also called 5A6(NA)x41B01 M12:WT; 5A6WT(NA)x41B01 M12
**Q.** With B9 as the binder, how does the “EC50 (read off the curve)” value [1] read?
**A.** Its value is ~0.5 nM.

**Q.** And the “In vitro 4-1BB activation (reporter bioassay) with H929 cells, EC50” value [2]?
**A.** The value was 0.459 nM.

**Q.** What about the “In vitro 4-1BB activation (reporter bioassay) with MM1S cells, EC50” value [2] of the same binder?
**A.** The value was 2.26 nM.

B10: 5A6M6(NA)x41B01 M12 (bispecific antibody, human IgG1, lambda, N297A)
heavy: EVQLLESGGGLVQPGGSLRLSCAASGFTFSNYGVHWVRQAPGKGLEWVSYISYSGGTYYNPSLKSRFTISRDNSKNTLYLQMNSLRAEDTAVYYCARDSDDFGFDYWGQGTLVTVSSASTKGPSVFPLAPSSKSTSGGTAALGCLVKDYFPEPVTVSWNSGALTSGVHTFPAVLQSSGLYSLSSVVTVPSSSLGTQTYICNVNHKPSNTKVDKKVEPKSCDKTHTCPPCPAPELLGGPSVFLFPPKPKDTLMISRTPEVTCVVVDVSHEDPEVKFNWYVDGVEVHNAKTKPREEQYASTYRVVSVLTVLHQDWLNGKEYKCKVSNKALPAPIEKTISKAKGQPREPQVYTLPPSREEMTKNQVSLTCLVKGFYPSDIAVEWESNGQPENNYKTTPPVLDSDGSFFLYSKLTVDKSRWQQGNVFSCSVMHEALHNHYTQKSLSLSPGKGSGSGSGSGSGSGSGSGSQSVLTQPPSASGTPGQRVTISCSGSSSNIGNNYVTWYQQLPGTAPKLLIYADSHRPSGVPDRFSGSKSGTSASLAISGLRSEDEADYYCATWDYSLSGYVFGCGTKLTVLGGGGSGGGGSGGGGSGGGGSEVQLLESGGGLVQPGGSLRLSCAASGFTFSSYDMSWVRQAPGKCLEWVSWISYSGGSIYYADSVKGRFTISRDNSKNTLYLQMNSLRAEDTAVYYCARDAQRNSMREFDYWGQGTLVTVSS
light: B9 light with D25E, S92A
notes: IgG1 N297A-(GS)9-scFv
**Q.** Which “EC50 (read off the curve)” value [1] does the source give for B10 here?
**A.** Its value is ~0.3 nM.

**Q.** What about the “In vitro 4-1BB activation (reporter bioassay) with H929 cells, EC50” value [2] of the same binder?
**A.** The value was 0.165 nM.

**Q.** And the “In vitro 4-1BB activation (reporter bioassay) with MM1S cells, EC50” value [2]?
**A.** The value was 1.98 nM.

**Q.** What about the Kd [3] of the same binder?
**A.** Its Kd is 22.6 nM.

**Q.** And the koff [3]?
**A.** The koff was 0.0119 s⁻¹.

**Q.** And the kon [3]?
**A.** The kon was 527000 M⁻¹ s⁻¹.

From US20230051266A1 (ABL BIO, published 2023)
